B1: S. cerevisiae His6-Cdh1 (natural protein)
chain: MSTNLNPFMNNTPSSSPLKGSESKRVSKRPISSSSSASLLSSPSRRSRPSTVYGDRYIPSRTDIDFNSIVSISSMASVPALNPSSTEDQVEYQKERQAHETYNTLLKNELFGEMLSKDTVGSESSIDRIKNTRPSTRGNVHAENTTRHGYELERVSTPPPEAAGLEEFSPHSTPVTPRRLFTSQQDEITRPSSNSVRGASLLTYQQRKGRRLSAASLLQSQFFDSMSPVRPDSKQLLLSPGKQFRQIAKVPYRVLDAPSLADDFYYSLIDWSSTDVLAVALGKSIFLTDNNTGDVVHLCDTENEYTSLSWIGAGSHLAVGQANGLVEIYDVMKRKCIRTLSGHIDRVACLSWNNHVLTSGSRDHRILHRDVRMPDPFFETIESHTQEVCGLKWNVADNKLASGGNDNVVHVYEGTSKSPILTFDEHKAAVKAMAWSPHKRGVLATGGGTADRRLKIWNVNTSIKMSDIDSGSQICNMVWSKNTNELVTSHGYSKYNLTLWDCNSMDPIAILKGHSFRVLHLTLSNDGTTVVSGAGDETLRYWKLFDKPKAKVQPNSLIFDAFNQIR
B2: 18-residue D-box peptide modelled on cyclin B (S. pombe Cdc13) (peptide)
peptide: NVPKKRHALDDVSNFHNK
modifications: not fully specified
B3: Apc3/Cdc27, TPR subunit in the S. cerevisiae APC/C (natural protein)
chain: MAVNPELAPFTLSRGIPSFDDQALSTIIQLQDCIQQAIQQLNYSTAEFLAELLYAECSILDKSSVYWSDAVYLYALSLFLNKSYHTAFQISKEFKEYHLGIAYIFGRCALQLSQGVNEAILTLLSIINVFSSNSSNTRINMVLNSNLVHIPDLATLNCLLGNLYMKLDHSKEGAFYHSEALAINPYLWESYEAICKMRATVDLKRVFFDIAGKKSNSHNNNAASSFPSTSLSHFEPRSQPSLYSKTNKNGNNNINNNVNTLFQSSNSPPSTSASSFSSIQHFSRSQQQQANTSIRTCQNKNTQTPKNPAINSKTSSALPNNISMNLVSPSSKQPTISSLAKVYNRNKLLTTPPSKLLNNDRNHQNNNNNNNNNNNNNNNNNNNNNNNNIINKTTFKTPRNLYSSTGRLTTSKKNPRSLIISNSILTSDYSITLPEIMYNFALILRSSSQYNSFKAIRLFESQIPSHIKDTMPWCLVQLGKLHFEIINYDMSLKYFNRLKDLQPARVKDMEIFSTLLWHLHDKVKSSNLANGLMDTMPNKPETWCCIGNLLSLQKDHDAAIKAFEKATQLDPNFAYAYTLQGHEHSSNDSSDSAKTCYRKALACDPQHYNAYYGLGTSAMKLGQYEEALLYFEKARSINPVNVVLICCCGGSLEKLGYKEKALQYYELACHLQPTSSLSKYKMGQLLYSMTRYNVALQTFEELVKLVPDDATAHYLLGQTYRIVGRKKDAIKELTVAMNLDPKGNQVIIDELQKCHMQE

No end group written: not given here.

Data set [1] concerns the target B3. The experiment in a line: cryo-EM structure.
Data set [2] has as its target T1, Apc2, cullin subunit in the S. cerevisiae APC/C (S. cerevisiae, UniProt Q12440 1-853).
T1 sequence: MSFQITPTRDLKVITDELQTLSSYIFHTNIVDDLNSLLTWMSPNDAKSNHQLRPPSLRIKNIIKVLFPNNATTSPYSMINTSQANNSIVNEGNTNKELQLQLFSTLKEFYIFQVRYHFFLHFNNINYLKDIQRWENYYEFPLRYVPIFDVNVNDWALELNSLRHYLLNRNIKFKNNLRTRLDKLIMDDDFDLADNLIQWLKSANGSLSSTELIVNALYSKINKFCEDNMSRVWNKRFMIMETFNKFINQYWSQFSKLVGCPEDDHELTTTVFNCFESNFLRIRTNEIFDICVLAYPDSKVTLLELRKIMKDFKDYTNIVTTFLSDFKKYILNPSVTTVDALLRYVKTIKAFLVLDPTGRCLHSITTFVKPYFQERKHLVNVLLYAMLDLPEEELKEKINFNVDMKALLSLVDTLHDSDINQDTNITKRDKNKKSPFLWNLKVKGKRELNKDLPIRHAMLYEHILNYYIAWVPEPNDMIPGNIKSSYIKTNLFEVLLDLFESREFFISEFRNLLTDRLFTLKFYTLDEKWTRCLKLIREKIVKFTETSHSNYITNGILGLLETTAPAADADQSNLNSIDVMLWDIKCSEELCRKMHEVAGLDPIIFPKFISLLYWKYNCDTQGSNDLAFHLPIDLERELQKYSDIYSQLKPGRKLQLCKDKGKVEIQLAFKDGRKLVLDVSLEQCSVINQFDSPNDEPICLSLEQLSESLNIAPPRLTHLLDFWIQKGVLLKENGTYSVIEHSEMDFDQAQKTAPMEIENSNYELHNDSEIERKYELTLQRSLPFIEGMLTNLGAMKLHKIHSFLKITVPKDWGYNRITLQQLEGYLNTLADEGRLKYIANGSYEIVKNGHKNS
The experiment in a line: cryo-EM structure.

The target in the data set “S. cerevisiae His6-Cdh1” is B1. The experiment in a line: cryo-EM structure.
Data set [3] has as its target APC/C in complex with Cdh1 (APC/C^Cdh1), budding yeast (S. cerevisiae) (UniProt P53886).
The data set “cryo-EM structure” deals with the molecule itself. Nature of the data set: cryo-EM structure.

Turning to B1, the binding result in data set [1] and in data set [2] was “binds” each time.

Turning to B2, the binding result with S. cerevisiae His6-Cdh1 is “binds”. Moreover, the inhibition of APC/C^Cdh1 ubiquitylation of Clb2 by the peptide in data set [3] worked out at 0.1 mM. For B3, the binding result in the data set “cryo-EM structure” was “binds”.

Values taken from article PMC3037847 (Nature, 2010).
